Results from article PMC3285688, “Active Site Mutations Change the Cleavage Specificity of Neprilysin” (PLoS ONE, 2012).
Residue numbers refer to the chain shown, from its start. Numbers in names are those of the source.

B1: NEP^F563M: neprilysin active site mutant, Phe563 to methionine (protein, UniProt P08473 2-750, looked up, variant F563M)
Neprilysin: GKSESQMDITDINTPKPKKKQRWTPLEISLSVLVLLLTIIAVTMIALYATYDDGICKSSDCIKSAARLIQNMDATTEPCTDFFKYACGGWLKRNVIPETSSRYGNFDILRDELEVVLKDVLQEPKTEDIVAVQKAKALYRSCINESAIDSRGGEPLLKLLPDIYGWPVATENWEQKYGASWTAEKAIAQLNSKYGKKVLINLFVGTDDKNSVNHVIHIDQPRLGLPSRDYYECTGIYKEACTAYVDFMISVARLIRQEERLPIDENQLALEMNKVMELEKEIANATAKPEDRNDPMLLYNKMTLAQIQNNFSLEINGKPFSWLNFTNEIMSTVNISITNEEDVVVYAPEYLTKLKPILTKYSARDLQNLMSWRFIMDLVSSLSRTYKESRNAFRKALYGTTSETATWRRCANYVNGNMENAVGRLYVEAAFAGESKHVVEDLIAQIREVFIQTLDDLTWMDAETKKRAEEKALAIKERIGYPDDIVSNDNKLNNEYLELNYKEDEYFENIIQNLKFSQSKQLKKLREKVDKDEWISGAAVVNAFYSSGRNQIVFPAGILQPPMFSAQQSNSLNYGGIGMVIGHEITHGFDDNGRNFNKDGDLVDWWTQQSASNFKEQSQCMVYQYGNFSWDLAGGQHLNGINTLGENIADNGGLGQAYRAYQNYIKKNGEEKLLPGLDLNHKQLFFLNFAQVWCGTYRPEYAVNSIKTDVHSPGNFRIIGTLQNSAEFSEAFHCRKNSYMNPEKKCRVW
B2: NEP^F563I: neprilysin active site mutant, Phe563 to isoleucine (protein, UniProt P08473 2-750, looked up, variant F563I)
Neprilysin: B1 Neprilysin with M563I

Columns and labels:
Type in all cases: biochemical
[1] = tested on: leu-ENK and insulin B chain; assay: Dual substrate assay: substrate preference leu-ENK versus insulin B chain; conditions: for Substrate preference leu-ENK/insulin B chain (in words): dual substrate assay, versus wild-type; for Ratio leu-ENK insulin B chain: ratio of rates, 15 µM insulin B chain and 64 µM leu-ENK together
Experimental: (§1) The rate of cleavage of a substrate mixture is determined by both the kcat for that substrate as well by the affinity for the substrate. […] This is expected, given that each peptide acts as a competitive inhibitor of the other. […] That is the ratio for leu-ENK/insulin B chain cleavage is 3 for NEP^S546E compared to 6 for wild-type NEP.
(§2) Cleavage of physiological peptides was measured via reverse phase high performance liquid chromatography (HPLC) following incubation of the purified NEP or its mutants with 15 µM insulin B chain (Sigma Aldrich), 24 µM Aß1–40 (Anaspec), or 64 µM leu-ENK (Sigma) in 100 µL of 20 mM MES, pH 6.5, at 37°C. Reactions were run in triplicate. HPLC was carried out in a Vydac C4 column using a linear gradient from 0.1% trifluoroacetic acid (TFA) in 95% water, 5% acetonitrile to 0.1% TFA in 50% acetonitrile/water at a flow rate of 1 mL/min. Peptides and hydrolysis products were detected at 214 nm and quantified by measuring peak areas. Peptides obtained from HPLC were analyzed on an Applied Biosystems 4800 MALDI TOF/TOF Proteomics Analyzer at the University of Kentucky Proteomics core. This facility is supported in part by grant P20RR020171 from the NIH/NCRR.

leu-ENK [2] = assay: Dual substrate assay: leu-ENK hydrolysis in presence of insulin B chain; conditions: 15 µM insulin B chain and 64 µM leu-ENK together, 37°C, 20 mM MES buffer, pH 6.5; for leu-ENK hydrolysis, activity relative to the uninhibited value: numbers in parenthesis
Experimental: as §1, §2

[3] = Hydrolysis of synthetic substrate Glut-Ala-Ala-Phe-MNA by NEP and mutants (fluorogenic); conditions: 37°C, 20 mM MES buffer, pH 6.5; for Specific Activity (Glut-Ala-Ala-Phe-MNA cleavage): 100 µM Glut-Ala-Ala-Phe-MNA, fluorescence ex 340 nm, em 425 nm; for Km: Glut-Ala-Ala-Phe-MNA 20 to 500 µM, Michaelis-Menten fit
Experimental: Reactions of 400 µl contained 100 µM Glut-Ala-Ala-Phe-MNA, 1 µg of aminopeptidase and 15 to 100 ng of NEP or mutant NEP depending on their activity in 20 mM MES buffer, pH 6.5. Activity was monitored with a Spectra Max Gemini XS plate reader using an excitation wavelength of 340 nm and an emission wavelength of 425 nm.
(§3) Kinetic constants for NEP and its mutants were obtained using the assay conditions noted above, but with Glut-Ala-Ala-Phe-MNA varied from 20 to 500 µM. Typically 12 data points were obtained. The data were fit to the Michaelis-Menten equation using Prism4 software. The Ki for insulin B chain was obtained by measuring the rate of Glut-Ala-Ala-Phe-MNA hydrolysis in the presence of varying concentrations of insulin B chain from 1 to 40 µM. Data were fit to a Dixon plot (1/rate versus [insulin B chain]) using Prism4 software and the ID50 obtained as the –x intercept, where ID50 corresponds to the concentration of insulin producing 50% inhibition. The actual Ki was obtained from the equation: ID50 = Ki (1+ [Glut-Ala-Ala-Phe-MNA]/KmGlut-Ala-Ala-Phe-MNA), [33].

Aß1–40 = assay: Rate of Aß1–40 hydrolysis (HPLC); conditions: 24 µM Aß1–40, 37°C, 20 mM MES buffer, pH 6.5; disappearance of substrate by HPLC; at least triplicate
Experimental: as §2
(§4) Statistical analysis comparing wild-type NEP and its mutants was performed with Prism 4 software using a two-tailed paired t-test with a 95% confidence interval.

insulin B chain [4] = assay: Insulin B chain as alternate substrate (competitive) inhibitor of Glut-Ala-Ala-Phe-MNA hydrolysis (Dixon plot); conditions: insulin B chain 1 to 40 µM as competitive inhibitor of Glut-Ala-Ala-Phe-MNA hydrolysis by the enzyme form, 37°C, 20 mM MES, pH 6.5, ID50 converted to Ki
Experimental: as §3

leu-ENK [5] = assay: Rate of leu-ENK hydrolysis (HPLC); conditions: 64 µM leu-ENK, 37°C, 20 mM MES buffer, pH 6.5; disappearance of substrate by HPLC; at least triplicate
Experimental: as §2, §4

insulin B chain [6] = assay: Dual substrate assay: insulin B chain hydrolysis in presence of leu-ENK; conditions: 15 µM insulin B chain and 64 µM leu-ENK together, 37°C, 20 mM MES buffer, pH 6.5; for Insulin B Chain hydrolysis, activity relative to the uninhibited value: numbers in parenthesis
Experimental: as §1, §2

insulin B chain [7] = assay: Rate of insulin B chain hydrolysis (HPLC); conditions: 15 µM insulin B chain, 37°C, 20 mM MES buffer, pH 6.5; disappearance of substrate by HPLC; at least triplicate
Experimental: as §2, §4

| Ki (insulin B chain [4]) | Molecule | Substrate preference leu-ENK/insulin B chain (in words) [1] | Ratio leu-ENK insulin B chain [1] | leu-ENK hydrolysis rate, dual substrate assay (leu-ENK [2]) | leu-ENK hydrolysis, activity relative to the uninhibited value (leu-ENK [2]) | Specific Activity (Glut-Ala-Ala-Phe-MNA cleavage) [3] | Km [3] | Rate of hydrolysis of Aß1–40 (Aß1–40) | Rate of hydrolysis of leu-ENK (leu-ENK [5]) | Insulin B Chain hydrolysis rate, dual substrate assay (insulin B chain [6]) | Insulin B Chain hydrolysis, activity relative to the uninhibited value (insulin B chain [6]) | Rate of hydrolysis of Insulin B Chain (insulin B chain [7]) |
| --- | --- | --- | --- | --- | --- | --- | --- | --- | --- | --- | --- | --- |
| 1200 ± 100 nM | B1 | no change in overall substrate preference | 6.3 | 0.69 ± 0.11 pmol/min/ng | 0.57 | 19.2 ± 0.4 pmol/min/ng | 87 ± 8 µM | 85 ± 3 fmol/min/ng | 1.21 ± 0.22 pmol/min/ng | 0.11 ± 0.02 pmol/min/ng | 0.52 | 0.21 ± 0.01 pmol/min/ng |
| 2500 ± 900 nM | B2 | shift in substrate preference toward leu-ENK | 31.0 | 0.62 ± 0.03 pmol/min/ng | 0.58 | 17.7 ± 0.6 pmol/min/ng | 83 ± 4 µM | 43 ± 1 fmol/min/ng | 1.06 ± 0.17 pmol/min/ng | 0.02 ± 0.01 pmol/min/ng | 0.15 | 0.13 ± 0.02 pmol/min/ng |
